According to publication PMC5758886:

How the values were obtained:
[1] = target: AcrIIA1 (native wild type) (Listeria monocytogenes prophages); test: crystal structure
[2] = target: AcrIIA1 (native wild type) (Listeria monocytogenes prophages); test: SEC
[3] = target: AcrIIA1 selenomethionyl L52M mutant (Listeria monocytogenes prophages); test: crystal structure

Substance	stoichiometry N [1]	stoichiometry N [2]	stoichiometry N [3]
AcrIIA1 (native wild type) (natural protein)	2	2	–
AcrIIA1 selenomethionyl L52M mutant (natural protein)	–	–	2
